In patent US20190233498A1 (H LUNDBECK A S, published 2019) one finds Kd and koff data, which are given here for two molecules.

One assay deals with T1, human PACAP38 (human, not fully specified; C-terminal lysine is amidated; N-terminal or C-terminal biotin in the HTRF and PC-12 cell binding assays).
T1 construct: synthetic peptide, bought; also called huPACAP (1-38)
T1 peptide: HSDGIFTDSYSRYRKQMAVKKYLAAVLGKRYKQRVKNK
The assay is described as follows: SPR, Ab immobilised. The procedure: (§1) Binding affinities of monoclonal antibodies for human PACAP were estimated using SPR on the PROTEON™ XPR36 (Bio-Rad, Hercules, Calif.). Antibody was immobilized to the surface of general amine coupling (“GLC” or “GLM”) Chips (Bio-Rad, Hercules, Calif.). A dilution series of human PACAP38 (SEQ ID NO: 1241) prepared in 1×PBST Buffer (4.3 mM Na Phosphate, 1.4 mM K Phosphate, 135 mM NaCl, 2.7 mM KCl 0.05% Polysorbate-20) purchased from Teknova (Cat# P1192, Teknova, Hollister, Calif.) and supplemented with 0.25 M arginine (from J.T. BAKER®), 0.2 mg/ml BSA (Jackson Immuno Research Labs, West Grove, Pa.), and 0.005% sodium azide (VWR International, Radnor, Pa.) with the pH adjusted to 7 was used to query the antibodies. Antigen (ranging from 1.23 nM to 100 nM) was typically run sequentially with association times of 2-4 minutes and dissociation times of 3-120 minutes grouped with the PROTEON™ Manager Software (v3.1.0.6 (Bio-Rad, Hercules, Calif.)) and fitted using a 1:1 Langmuir binding model. Surfaces were regenerated between analyte queries using 0.85% Phosphoric Acid.
(In general: Surface plasmon resonance follows binding to a sensor surface in real time, without labels.)

For a further assay, the target named is T2, human PACAP27 (human, C-terminal leucine is amidated; 125I-labelled in Example 10).
T2 peptide: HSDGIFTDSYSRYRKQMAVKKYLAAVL
The assay is described as follows: SPR, Ab immobilised. The procedure: [The procedure below names another target; the source says it served here with some conditions changed.] as §1

B1: anti-PACAP antibody Ab10.H (antibody, V domains shown)
VH: EVQLVESGGGLVQPGGSLRLSCAASGIDLNSYYMTWVRQAPGKGLEWIGFIDAGGDAYYASWAKGRFTISRDNSKNTVYLQMNSLRAEDTAVYFCARDLDLWGQGTLVTVSS
VL: DAQLTQSPSTLSASVGDRVTITCQSSESVYGNYLAWFQQKPGKAPKFLIYEASKLESGVPSRFSGSGSGTEFTLTISSLQPDDFATYYCAGGDISEGVAFGGGTKVEIKR
Consider B1, for which, in the assay with human PACAP38, binding was characterised by a dissociation constant (Kd) of 0.029 nM and the off-rate constant (koff) (commonly the rate constant with which the complex falls apart) turned out to be 1e-05 s⁻¹.

B2: anti-PACAP antibody Ab10 (antibody, V domains shown)
VH: QSVEESGGRLVTPGTPLTLTCTVSGIDLNSYYMTWVRQAPGKGLEWIGFIDAGGDAYYASWAKGRFTISKTSTTVDLKITSPTTEDTATYFCARDLDLWGQGTLVTVSS
VL: AAVLTQTPSPVSAAVGGTVTINCQSSESVYGNYLAWFQQKPGQPPKLLIYEASKLESGVPSRFSGSGSGTQFTLTISDLQCDDAATYYCAGGDISEGVAFGGGTEVVVKR
As to B2, in the assay with human PACAP27, the Kd (as a rule, a measure of binding affinity in units of concentration) worked out at 0.01 nM and the koff came to 1e-05 s⁻¹.
